Biological target: human IgG (human)
Assay: BLI Octet, construct on Ni-NTA sensor, hIgG in solution

Substance | Kd | Response (nm) | koff | kon
HSV2-gE_A246W P317F_gI (from UniProt P89475 21-416; P06764 21-256) (receptor) | < 0.001 nM | 0.101 nm | < 1e-07 s⁻¹ | 6180 M⁻¹ s⁻¹
HSV2-gE_A246W P317K_gI (from UniProt P89475 21-416; P06764 21-256) (receptor) | < 0.001 nM | 0.071 nm | < 1e-07 s⁻¹ | 6090 M⁻¹ s⁻¹
HSV2-gE_A246W P317S_gI (from UniProt P89475 21-416; P06764 21-256) (receptor) | < 0.001 nM | 0.121 nm | < 1e-07 s⁻¹ | 3600 M⁻¹ s⁻¹
HSV2-gE_A246W R320D_gI (from UniProt P89475 21-416; P06764 21-256) (receptor) | < 0.001 nM | 0.0712 nm | < 1e-07 s⁻¹ | 2260 M⁻¹ s⁻¹
HSV2-gE_A248G F322A_gI (from UniProt P89475 21-416; P06764 21-256) (receptor) | 270 nM | 0.559 nm | 0.00352 s⁻¹ | 13100 M⁻¹ s⁻¹
HSV2-gE_A248G F322I_gI (from UniProt P89475 21-416; P06764 21-256) (receptor) | 465 nM | 0.373 nm | 0.00439 s⁻¹ | 9450 M⁻¹ s⁻¹
HSV2-gE_A248G F322P_gI (from UniProt P89475 21-416; P06764 21-256) (receptor) | 320 nM | 0.497 nm | 0.00367 s⁻¹ | 11500 M⁻¹ s⁻¹
HSV2-gE_A248G V340M_gI (from UniProt P89475 21-416; P06764 21-256) (receptor) | 571 nM | 0.452 nm | 0.0052 s⁻¹ | 9110 M⁻¹ s⁻¹
HSV2-gE_A248G V340R_gI (from UniProt P89475 21-416; P06764 21-256) (receptor) | 8960 nM | 0.303 nm | 0.00461 s⁻¹ | 514 M⁻¹ s⁻¹
HSV2-gE_A248G_gI (from UniProt P89475 21-416; P06764 21-256) (receptor) | 560 nM | 0.506 nm | 0.00551 s⁻¹ | 9840 M⁻¹ s⁻¹
HSV2-gE_A248K F322A_gI (from UniProt P89475 21-416; P06764 21-256) (receptor) | 408 nM | 0.481 nm | 0.00397 s⁻¹ | 9720 M⁻¹ s⁻¹
HSV2-gE_A248K F322I_gI (from UniProt P89475 21-416; P06764 21-256) (receptor) | 870 nM | 0.321 nm | 0.00525 s⁻¹ | 6040 M⁻¹ s⁻¹
HSV2-gE_A248K F322P_gI (from UniProt P89475 21-416; P06764 21-256) (receptor) | 498 nM | 0.427 nm | 0.00461 s⁻¹ | 9250 M⁻¹ s⁻¹
HSV2-gE_A248K V340M_gI (from UniProt P89475 21-416; P06764 21-256) (receptor) | < 0.001 nM | 0.0007 nm | < 1e-07 s⁻¹ | 237 M⁻¹ s⁻¹
HSV2-gE_A248K V340R_gI (from UniProt P89475 21-416; P06764 21-256) (receptor) | < 0.001 nM | 0.0449 nm | < 1e-07 s⁻¹ | 3040 M⁻¹ s⁻¹
HSV2-gE_A248K_gI (from UniProt P89475 21-416; P06764 21-256) (receptor) | 450 nM | 0.477 nm | 0.00499 s⁻¹ | 11100 M⁻¹ s⁻¹
HSV2-gE_A248T F322I_gI (from UniProt P89475 21-416; P06764 21-256) (receptor) | 8850 nM | 0.184 nm | 0.00486 s⁻¹ | 549 M⁻¹ s⁻¹
HSV2-gE_A248T F322P_gI (from UniProt P89475 21-416; P06764 21-256) (receptor) | 1490 nM | 0.2 nm | 0.00426 s⁻¹ | 2870 M⁻¹ s⁻¹
HSV2-gE_A248T V340R_gI (from UniProt P89475 21-416; P06764 21-256) (receptor) | < 0.001 nM | 0.183 nm | < 1e-07 s⁻¹ | 5000 M⁻¹ s⁻¹
HSV2-gE_F322A_gI (from UniProt P89475 21-416; P06764 21-256) (receptor) | 167 nM | 0.86 nm | 0.00273 s⁻¹ | 16400 M⁻¹ s⁻¹
HSV2-gE_F322I_gI (from UniProt P89475 21-416; P06764 21-256) (receptor) | 302 nM | 0.639 nm | 0.00363 s⁻¹ | 12000 M⁻¹ s⁻¹
HSV2-gE_F322K_gI (from UniProt P89475 21-416; P06764 21-256) (receptor) | 278 nM | 0.599 nm | 0.00301 s⁻¹ | 10800 M⁻¹ s⁻¹
HSV2-gE_F322N_gI (from UniProt P89475 21-416; P06764 21-256) (receptor) | 239 nM | 0.73 nm | 0.00313 s⁻¹ | 13100 M⁻¹ s⁻¹
HSV2-gE_F322P_gI (from UniProt P89475 21-416; P06764 21-256) (receptor) | 160 nM | 0.807 nm | 0.00223 s⁻¹ | 13900 M⁻¹ s⁻¹

Substance | Kd | Response (nm) | koff | kon
HSV2-gE_F322T_gI (from UniProt P89475 21-416; P06764 21-256) (receptor) | 179 nM | 0.762 nm | 0.00269 s⁻¹ | 15000 M⁻¹ s⁻¹
HSV2-gE_H245A P319G_gI (from UniProt P89475 21-416; P06764 21-256) (receptor) | 491 nM | 0.26 nm | 0.00391 s⁻¹ | 7970 M⁻¹ s⁻¹
HSV2-gE_H245A P319L_gI (from UniProt P89475 21-416; P06764 21-256) (receptor) | 449 nM | 0.265 nm | 0.00273 s⁻¹ | 6080 M⁻¹ s⁻¹
HSV2-gE_H245G P319G_gI (from UniProt P89475 21-416; P06764 21-256) (receptor) | 2010 nM | 0.157 nm | 0.00357 s⁻¹ | 1780 M⁻¹ s⁻¹
HSV2-gE_H245G P319L_gI (from UniProt P89475 21-416; P06764 21-256) (receptor) | 327 nM | 0.361 nm | 0.00189 s⁻¹ | 5760 M⁻¹ s⁻¹
HSV2-gE_H245G R320T_gI (from UniProt P89475 21-416; P06764 21-256) (receptor) | 591 nM | 0.279 nm | 0.00319 s⁻¹ | 5400 M⁻¹ s⁻¹
HSV2-gE_H245G_gI (from UniProt P89475 21-416; P06764 21-256) (receptor) | 1630 nM | 0.424 nm | 0.00669 s⁻¹ | 4110 M⁻¹ s⁻¹
HSV2-gE_H245I_gI (from UniProt P89475 21-416; P06764 21-256) (receptor) | 183 nM | 1.02 nm | 0.00301 s⁻¹ | 16500 M⁻¹ s⁻¹
HSV2-gE_H245K_gI (from UniProt P89475 21-416; P06764 21-256) (receptor) | 686 nM | 0.562 nm | 0.00614 s⁻¹ | 8960 M⁻¹ s⁻¹
HSV2-gE_H245Q_gI (from UniProt P89475 21-416; P06764 21-256) (receptor) | 320 nM | 0.896 nm | 0.0048 s⁻¹ | 15000 M⁻¹ s⁻¹
HSV2-gE_H245R_gI (from UniProt P89475 21-416; P06764 21-256) (receptor) | 265 nM | 0.842 nm | 0.00416 s⁻¹ | 15700 M⁻¹ s⁻¹
HSV2-gE_H245S_gI (from UniProt P89475 21-416; P06764 21-256) (receptor) | 866 nM | 0.46 nm | 0.00658 s⁻¹ | 7600 M⁻¹ s⁻¹
HSV2-gE_H245T_gI (from UniProt P89475 21-416; P06764 21-256) (receptor) | 813 nM | 0.493 nm | 0.00605 s⁻¹ | 7450 M⁻¹ s⁻¹
HSV2-gE_H245V_gI (from UniProt P89475 21-416; P06764 21-256) (receptor) | 486 nM | 0.745 nm | 0.00573 s⁻¹ | 11800 M⁻¹ s⁻¹
HSV2-gE_P317F_gI (from UniProt P89475 21-416; P06764 21-256) (receptor) | 8770 nM | 0.143 nm | 0.00166 s⁻¹ | 189 M⁻¹ s⁻¹
HSV2-gE_P317G_gI (from UniProt P89475 21-416; P06764 21-256) (receptor) | 555 nM | 0.338 nm | 0.00429 s⁻¹ | 7740 M⁻¹ s⁻¹
HSV2-gE_P317I_gI (from UniProt P89475 21-416; P06764 21-256) (receptor) | 1000 nM | 0.243 nm | 0.00382 s⁻¹ | 3810 M⁻¹ s⁻¹
HSV2-gE_P317K_gI (from UniProt P89475 21-416; P06764 21-256) (receptor) | 374 nM | 0.13 nm | 0.00136 s⁻¹ | 3640 M⁻¹ s⁻¹
HSV2-gE_P317L_gI (from UniProt P89475 21-416; P06764 21-256) (receptor) | 5110 nM | 0.161 nm | 0.00181 s⁻¹ | 354 M⁻¹ s⁻¹
HSV2-gE_P317N_gI (from UniProt P89475 21-416; P06764 21-256) (receptor) | 500 nM | 0.381 nm | 0.00459 s⁻¹ | 9180 M⁻¹ s⁻¹
HSV2-gE_P317S_gI (from UniProt P89475 21-416; P06764 21-256) (receptor) | 255 nM | 0.669 nm | 0.00358 s⁻¹ | 14000 M⁻¹ s⁻¹
HSV2-gE_P318D_gI (from UniProt P89475 21-416; P06764 21-256) (receptor) | < 0.001 nM | 0.0995 nm | < 1e-07 s⁻¹ | 5180 M⁻¹ s⁻¹
HSV2-gE_P318Q_gI (from UniProt P89475 21-416; P06764 21-256) (receptor) | 443 nM | 0.152 nm | 0.00139 s⁻¹ | 3150 M⁻¹ s⁻¹
HSV2-gE_P318R_gI (from UniProt P89475 21-416; P06764 21-256) (receptor) | 794 nM | 0.151 nm | 0.000756 s⁻¹ | 952 M⁻¹ s⁻¹

Source: patent publication US20220273789A1
